Assay results as given in the nanobody polyreactivity screen of Harvey et al. (2022).

Assay: yeast display, Sf9 membrane polyspecificity reagent, FACS + sequencing; frameworks hold sequencing errors
Procedure, shortened: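 Synthetic nanobody libraries on Saccharomyces cerevisiae BJ5465 were galactose-induced for 36–48 hours, stained 1 hour at 4 °C with 10% biotinylated, detergent-solubilized Sf9 membrane reagent and enriched on streptavidin microbeads. FACS then separated cells into low and high (top ~1%) gates by anti-HA (expression) and streptavidin (reagent binding) fluorescence. Genes were colony-PCR amplified, MiSeq 2 × 250 sequenced and CDR-length filtered. A clone's polyreactivity label is that of its gate of origin.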

Sequence | polyreactivity (PSR sort gate)
QVQLVESGGGLVQAGGSLRLSCAASGRIFVSNAMGWYRQAPGKERELVACITWTSGSTYYADSVKGRFTISRDNAKNTVYLQMNSLKPEDTAVYYCAAEYWYGNAFDYWGQGTQVTVSS | low polyreactivity
QVQLVESGGGLVQAGGSLRLSCAASGRIFVSNAMGWYRQAPGKERELVAGITWTSGSTYYADSVKGRFTISRDNAKNTFYLQMNSLKPEDSAVYYCAAEFWYGNALDYWGQGTQVTVSS | low polyreactivity
QVQLVESGGGLVQAGGSLRLSCAASGRIFVSNDMGWYSQAPGKERELVAAISWSDDSTHYADSVKGRLTISRDNAKNTVYLQMNSLKPEDTAVYYCNKQRYYSTWRYDYWGQGTQVTVSS | low polyreactivity
QVQLVESGGGLVQAGGSLRLSCAASGRIFVSNTMGWYRQAPGKDWEWVAAITSVGSTNYADSVKGRFTISRDHAKNTVYLQMNSLKPEDTAVYYCNADNPYSDGADSLGNYWGQGTQVTVSS | low polyreactivity
QVQLVESGGGLVQAGGSLRLSCAASGRIFVTNAMGWYRQAPGKEREMVAAITRRGGRTYYADSVKGRFTISRDNAKNTVYLQMHSLKREDTAVYYCAAERYPEAGSPYGTAEMDYWGQGTQVTVSS | high polyreactivity
QVQLVESGGGLVQAGGSLRLSCAASGRIFVTNTMGWYRQAPGKERELVAAIDNSAGSTYYADSVKGRFTISRDNAKNTVYLQMNSLKPEDTAVYYCAADYPPYYGYGYWGQGTQVSVSS | low polyreactivity
QVQLVESGGGLVQAGGSLRLSCAASGRIFVVNAMGWYRQAPGKERELVAAITRRGGSTYADSVKGRFTISRDNAKNTVYLQMNSLKPEDTAVYYCNKLVTGGSWSPGHYRYNYWGQGTQVTVSS | high polyreactivity
QVQLVESGGGLVQAGGSLRLSCAASGRIFVVYAMGWYRQAPGKERELVAAITRSGGRTFYAASVKGRFTISRDNATNTVYLQMYSQKPEDTAVYYCNKVDRFYLRLVYWGQGTQVTVAS | high polyreactivity
QVQLVESGGGLVQAGGSLRLSCAASGRIFVVYAMGWYRQAPGKERELVAAITYGGGSTHYADSVKGRFTISRDNAKNTVYLQINSLIPEDTAVYYCAADLFYHSYGYEYWGQGTQVTVSS | low polyreactivity
QVQLVESGGGLVQAGGSLRLSCAASGRIFVVYAMGWYRQAPGKERELVASITWRGGSTYYADSVKGRFTISRDNAKNTVDLQMNSLKPEDTAVYYCAAELDVYVSIGSRFHFDYCGQGTQVTVSS | low polyreactivity
QVQLVESGGGLVQAGGSLRLSCAASGRIFVWNTMGWYRQAPGKERELVAAITSGGSTTYADSVKGRFTISRDNAKNTVYLQMNSLKPEDTAVYYCNTELDLYHPGDDYWGQGTQVTVSS | high polyreactivity
QVQLVESGGGLVQAGGSLRLSCAASGRIFVWNVMGWYRQAPGKERELVAAITYSGDTTYYADSVKGRFTISRDNAKNTVYLQMNSLKPEDTAFYYCAAVRRGGGVKYDYWGQGTQVTVSS | high polyreactivity
QVQLVESGGGLVQAGGSLRLSCAASGRIFVYNAMGWYRQAPGKERELVAAITRGGSTYYADSVKGRFTISRDNAKNTVYLQMNSLKPEDTAVYYCASDYQRNDFRWYDYWGQGTQVTVSS | low polyreactivity
QVQLVESGGGLVQAGGSLRLSCAASGRIFVYNVMGWYSQAPGKERELVAAISWGTGSTYADSVKGRFTISRANAKNSVYLQMNSLKPEDTAVYYCAADSFIPPYDHWGQGTQVTVSS | low polyreactivity
QVQLVESGGGLVQAGGSLRLSCAASGRIFVYYAMGWYRQAPGKERELVASISYSGASTYYADSVKGRFTISRDNAKNTVYLQMYSLKPEDTAVYYCNTDGDDFFHVIYDYWGQGTQVTVSS | low polyreactivity
QVQLVESGGGLVQAGGSLRLSCAASGRIFVYYAMGWYRQAPGKERELVATITSSDITNDADSVKGRFTISCDNAKNTVYLQMNSLKPEDTAVYYCARDYYVYSSGHVPLDYWGQGTQVTVSS | low polyreactivity
QVQLVESGGGLVQAGGSLRLSCAASGRIFVYYTMGWYRPAPGKERELVAAIRSSGGSTYADSVKGRFTISRDNAKNTVSLQMNSLKPEDTAVYYCNAGYRSWQYRSGLYGDYNYWGQGTQVTVSS | high polyreactivity
QVQLVESGGGLVQAGGSLRLSCAASGRIFVYYVMGWYRQAPGKERELVAAITYSGGSTYYADSVKGRFTISRDNAKNTVYLQMNSLKPEDTAVYYCNKVDAFGIVRLYYWGQGTQVTVSS | low polyreactivity
QVQLVESGGGLVQAGGSLRLSCAASGRIFWAYAMGWYRQAPGKERELVADITSGGSTYYADSVKGRFTISRDNAKNNVYLQMNSLKPEDTAVYYCAVGSKWVDDSPEDEYWGQGTQVTVSS | low polyreactivity
QVQLVESGGGLVQAGGSLRLSCAASGRIFWDNAMGWYRQAAGKEWELVAAISDSVVITYYADSVKGRFTISRDNAKNTVYLQMNSLKPEDTAVYYCAADKRGTVYLSSLWMDYWGQGTQVTVSS | low polyreactivity
QVQLVESGGGLVQAGGSLRLSCAASGRIFWDYAMGWYRQAPGKERELVAVITFSGDSTYYADSVKGRFTISRDYAKNTVYLQMNSLKPEDTAVYYCAAARAIRQFWYVATFEYWGQGTQVTVSS | low polyreactivity
QVQLVESGGGLVQAGGSLRLSCAASGRIFWEYAMGWYRQAPGKERELVAAITWRVGSTYYADSVKGRFTISRDNAKNTVYLQMNSLKPEDTAVYYCVARSQSIRYTYIRSYYWGQGTQVTVSS | low polyreactivity

Sequence | polyreactivity (PSR sort gate)
QVQLVESGGGLVQAGGSLRLSCAASGRIFWFYTMGWYRQAPGKERELVARITTSGGSTYYADSVKGRFTISRDNAKNTVYLQMNSLKPEDTAVYYCAARPRDYHSFSLDYYYWGQGTQVTVSS | high polyreactivity
QVQLVESGGGLVQAGGSLRLSCAASGRIFWGNAMGWYRQAPGKEREFVAGITGIGGRTYYADSVKGRFTISRDNAKNTVYLQMNSLKPEDTAVYYCARTWAVSYGYAMDYWGQGTQVTVSS | low polyreactivity
QVQLVESGGGLVQAGGSLRLSCAASGRIFWGYDMGSYRQAPGKQTEFVAAISSGGGRTYYADSVKGRFTISRDNAKNPVYLPMNSLKPEDTAVYYCNAELNWYYYIHLDYWGQGTQVTVSS | low polyreactivity
QVQLVESGGGLVQAGGSLRLSCAASGRIFWGYTMGWYRQAPGKERELVAAITFRGATTYYADSVKGRFTISRDNAKNTVYLQLNSLKPEDTAVYYCAKRGYASGSKWDYGYWGQGTQVTVSS | high polyreactivity
QVQLVESGGGLVQAGGSLRLSCAASGRIFWGYVMGWYRQAPGKERELVAAISSGGDTHYADSVKGRFTISRDNAKNTVYLQMNSLKPEDTAVYYCAKENQYYDSKVAGVLTGLYDYWGQGTQVTVSS | low polyreactivity
QVQLVESGGGLVQAGGSLRLSCAASGRIFWHNAMGWYRQAPGKERELVAAITGGGSTYYADSVKGRFTISRDNAKNTVYLQMNSLKPEDTAVYYCATLGSLRYYWPGYDYWGQGTQVTVSS | low polyreactivity
QVQLVESGGGLVQAGGSLRLSCAASGRIFWHNAMGWYRQAPGTERELVAAITGGGSTYYADSVKGRFTISRDNAKNTVYLQMNSLKPEDTAVYYCATLGSLRYYWPGYDYWGQGTQVTVSS | low polyreactivity
QVQLVESGGGLVQAGGSLRLSCAASGRIFWHYAMGWYRQAPGKERELVAAISSRGGSTYYADSVKGRFTISRDNAKNTVYLQMNSLKPEDTAVYYCAADRVDGGSYYHSGYWGQGTQVTVSS | high polyreactivity
QVQLVESGGGLVQAGGSLRLSCAASGRIFWLYAMGWYRQAPGKERELVAAITGIGGSTYYADSVKGRFTISRDNAKNTVYLQMNSLKPEDTAVYYCAARYPATYPSMGYWGQGTQVTVSS | low polyreactivity
QVQLVESGGGLVQAGGSLRLSCAASGRIFWPYARGWYRPAPGKERELVAAITSGGSTYYADSVKGRFTISRDNAKNTVYLQMNSLKQEDTAVYYCAKLSSGVSVPVAYGGIKRYNSWGQGTQVTVSS | low polyreactivity
QVQLVESGGGLVQAGGSLRLSCAASGRIFWQYAMGWYRQAPGKERELVAGITYRGGSTYYADSVKGRFTISRDNAKQTVYLLMNSLKPEDTAVYYCAADTYLSSQYSDRYGYDYWGQGTQVTVSS | high polyreactivity
QVQLVESGGGLVQAGGSLRLSCAASGRIFWRNTMGWYRQAPGKERELVAAITRTGGSTYYADSVKGRFTISRDNAKNTVYLQMNSLKPEDTAVYYCAAQQHYGDGYWGQGTQVTVSS | high polyreactivity
QVQLVESGGGLVQAGGSLRLSCAASGRIFWRYAMGWYRQAPGKERELVAAITSGGNTYYADSVKGRFTISRDNAKNTVYLQMNSLKPEDTAVYYCATVFSVQGWYFGMNYWGQGTQVTVSS | low polyreactivity
QVQLVESGGGLVQAGGSLRLSCAASGRIFWRYAMGWYRQAPGKERELVAAITWSVGSTYYADSVKGRFTISRDNAKNTVYLLMNSLKPEDTAVYYCATDVKNVRYRYRYDYWGQGTQVTVSS | low polyreactivity
QVQLVESGGGLVQAGGSLRLSCAASGRIFWSNAMGWYRQAPGKERELVAAIRNTCSTNYADSVKGRFTISRDNAKNTVYLQMISLKPEDTGVYYCAADRASYFTYAYGYWGQGTQVTVSS | high polyreactivity
QVQLVESGGGLVQAGGSLRLSCAASGRIFWSNAMGWYRQAPGKERELVATISSGGRTYYADSVKGRFTISRDNAKNTVYLQMNSLKPEDTAVYYCNATSGYKHAWRSENGYWGQGTQVTVSS | low polyreactivity
QVQLVESGGGLVQAGGSLRLSCAASGRIFWTYAMGWYRQAPGKERELVAAINSSDGTYYADSVKGRFTISRDNAKNTVYLQMNSLKPEDTAVYYCNADRDALVGYDYDYWGQVTQVTVSS | low polyreactivity
QVQLVESGGGLVQAGGSLRLSCAASGRIFWTYAMGWYSQAPGKERELVASITWSGGSTYYADSVKGRFTISRDNAKNTFYLQMNSLKPEDTAVYYCKTDVLAPYDSGYWGQGTQVTVSS | low polyreactivity
QVQLVESGGGLVQAGGSLRLSCAASGRIFWVNAMGWYIQAPGKERELVAVISRGGSTTYADSVKGRFTISRDNEKNTVYLQMNSLKPEDTAVYYCAADAYSHAFLYYGYDYWGQGTQVTVSS | low polyreactivity
QVQLVESGGGLVQAGGSLRLSCAASGRIFWWYSMGWYRQAPVKERELVAAISTGSRTYYADSVKGRFTISRDNAKNTVFLQMNSLKPEDTAVYYCVADGLYSVSRSSIFEYWGQGTQVTVSS | low polyreactivity
QVQLVESGGGLVQAGGSLRLSCAASGRIFWYNAMGWYRPAPGKERELVASITRGNNTYYADSVKGRFTISRDNAKTTVYLQMNSLKPEDTAVYYCAKRYIYRYYWGQGTQVTVSS | high polyreactivity
